In the supplement of paper PMC6757056:
± gives the standard deviation of the averaged measurements.

B1: library; a variant is named by its letters at N, in order (parent)
chain: GCUGUCACCGAGAAACUGUGAAGUAUAUCUUAAACCUGGGCACUUAAAAGAUAUAUGGAGUUAGUAGUGCAACCUGCUCGGUCUGAUGAGUCCNNNNNNGGACGAAACAGC

Tests used:
[1] = variants of: B1; experiment: FACS-Seq fitted mean relative fluorescence mCherry/BFP without ligand (log10 relative fluorescence); HEK293T; ligand: cyclic di-GMP (c-di-GMP-II aptamer); higher = higher reporter protein expression; details: ligand present: no
Outline: (§1)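 Sorting into 6 bins by mCherry/BFP followed 48 h of incubation with or without ligand. The cells were enriched HEK293T libraries lentivirally bearing an mCherry reporter with the ribozyme switch and an EF1α-BFP marker, and bin genomic DNA was PCR-amplified, barcoded and sequenced on MiSeq. Fluorescence is the fitted normal mean of the bin counts. Means were fitted on log10(mCherry/BFP), scaled to five spiked-in control ribozymes.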

[2] = variants of: B1; experiment: normalized RNA/DNA level without ligand (relative to sTRSVctl = 100) (log10 (% of sTRSVctl)); HEK293T; ligand: cyclic di-GMP (c-di-GMP-II aptamer); higher = less ribozyme self-cleavage, higher mRNA level; details: reporter: mCherry (pCS4076), ligand present: no
Outline: (§2)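 Ribozyme switch library plasmids with mCherry reporters (eGFP in certain ligand experiments) went into HEK293T cells at 4 µg per 6-well well. Where ligand was used, it was applied 1 h before transfection, and total RNA was extracted with EDTA 72 h later for reverse transcription, amplification, barcoding and sequencing. RNA level is the RNA-to-DNA read ratio normalized to a spiked-in non-cleaving sequence or to the leading sequences, then scaled and log-transformed. Scaling was ×100 with log10, the leading set comprised 25 sequences, and the cutoff was ≥100 DNA reads.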

[3] = variants of: B1; experiment: FACS-Seq fitted mean relative fluorescence mCherry/BFP with ligand (log10 relative fluorescence); HEK293T; ligand: cyclic di-GMP (c-di-GMP-II aptamer); ligand concentration (+) FACS-Seq: 1 mM; higher = higher reporter protein expression; details: ligand present: yes
Outline: as §1

[4] = variants of: B1; experiment: normalized RNA/DNA level with ligand (relative to sTRSVctl = 100) (log10 (% of sTRSVctl)); HEK293T; ligand: cyclic di-GMP (c-di-GMP-II aptamer); ligand concentration (+) RNA-Seq: 1 mM; higher = less ribozyme self-cleavage, higher mRNA level; details: reporter: mCherry (pCS4076), ligand present: yes
Outline: as §2

GCUGUCACCGAGAAACUGUGAAGUAUAUCUUAAACCUGGGCACUUAAAAGAUAUAUGGAGUUAGUAGUGCAACCUGCUCGGUCUGAUGAGUCCGCGUAUGGACGAAACAGC
FACS-Seq fitted mean (log10) [1]: -0.304 ± 0.056
normalized RNA/DNA level without ligand (log10) [2]: 1.48 ± 0.043
FACS-Seq fitted mean (log10) [3]: 0.0112 ± 0.012
normalized RNA/DNA level with ligand (log10) [4]: 1.72 ± 0.12

GCUGUCACCGAGAAACUGUGAAGUAUAUCUUAAACCUGGGCACUUAAAAGAUAUAUGGAGUUAGUAGUGCAACCUGCUCGGUCUGAUGAGUCCCUGAUUGGACGAAACAGC
FACS-Seq fitted mean (log10) [1]: -0.154 ± 0.084
normalized RNA/DNA level without ligand (log10) [2]: 1.505 ± 0.015
FACS-Seq fitted mean (log10) [3]: 0.107 ± 0.18
normalized RNA/DNA level with ligand (log10) [4]: 1.71 ± 0.12

GCUGUCACCGAGAAACUGUGAAGUAUAUCUUAAACCUGGGCACUUAAAAGAUAUAUGGAGUUAGUAGUGCAACCUGCUCGGUCUGAUGAGUCCAAAUGUGGACGAAACAGC
FACS-Seq fitted mean (log10) [1]: -0.132 ± 0.022
normalized RNA/DNA level without ligand (log10) [2]: 1.54 ± 0.03
FACS-Seq fitted mean (log10) [3]: 0.136 ± 0.093
normalized RNA/DNA level with ligand (log10) [4]: 1.78 ± 0.09

GCUGUCACCGAGAAACUGUGAAGUAUAUCUUAAACCUGGGCACUUAAAAGAUAUAUGGAGUUAGUAGUGCAACCUGCUCGGUCUGAUGAGUCCGCGGACGGACGAAACAGC
FACS-Seq fitted mean (log10) [1]: -0.751 ± 0.049
normalized RNA/DNA level without ligand (log10) [2]: 1.33 ± 0.11
FACS-Seq fitted mean (log10) [3]: -0.511 ± 0.04
normalized RNA/DNA level with ligand (log10) [4]: 1.46 ± 0.045

GCUGUCACCGAGAAACUGUGAAGUAUAUCUUAAACCUGGGCACUUAAAAGAUAUAUGGAGUUAGUAGUGCAACCUGCUCGGUCUGAUGAGUCCUACGAAGGACGAAACAGC
FACS-Seq fitted mean (log10) [1]: -0.516 ± 0.06
normalized RNA/DNA level without ligand (log10) [2]: 1.61 ± 0.03
FACS-Seq fitted mean (log10) [3]: -0.204 ± 0.067
normalized RNA/DNA level with ligand (log10) [4]: 1.76 ± 0.1

GCUGUCACCGAGAAACUGUGAAGUAUAUCUUAAACCUGGGCACUUAAAAGAUAUAUGGAGUUAGUAGUGCAACCUGCUCGGUCUGAUGAGUCCUGCAUCGGACGAAACAGC
FACS-Seq fitted mean (log10) [1]: -1.13 ± 0.034
normalized RNA/DNA level without ligand (log10) [2]: 1.78 ± 0.026
FACS-Seq fitted mean (log10) [3]: -0.952 ± 0.082
normalized RNA/DNA level with ligand (log10) [4]: 1.87 ± 0.099

GCUGUCACCGAGAAACUGUGAAGUAUAUCUUAAACCUGGGCACUUAAAAGAUAUAUGGAGUUAGUAGUGCAACCUGCUCGGUCUGAUGAGUCCUAGAAAGGACGAAACAGC
FACS-Seq fitted mean (log10) [1]: -0.272 ± 0.026
normalized RNA/DNA level without ligand (log10) [2]: 1.58 ± 0.037
FACS-Seq fitted mean (log10) [3]: -0.0653 ± 0.024
normalized RNA/DNA level with ligand (log10) [4]: 1.75 ± 0.18

GCUGUCACCGAGAAACUGUGAAGUAUAUCUUAAACCUGGGCACUUAAAAGAUAUAUGGAGUUAGUAGUGCAACCUGCUCGGUCUGAUGAGUCCUAGUCCGGACGAAACAGC
FACS-Seq fitted mean (log10) [1]: 0.148 ± 0.14
normalized RNA/DNA level without ligand (log10) [2]: 1.72 ± 0.1
FACS-Seq fitted mean (log10) [3]: 0.203 ± 0.041
normalized RNA/DNA level with ligand (log10) [4]: 1.85 ± 0.086

GCUGUCACCGAGAAACUGUGAAGUAUAUCUUAAACCUGGGCACUUAAAAGAUAUAUGGAGUUAGUAGUGCAACCUGCUCGGUCUGAUGAGUCCGCGGAAGGACGAAACAGC
FACS-Seq fitted mean (log10) [1]: -0.527 ± 0.013
normalized RNA/DNA level without ligand (log10) [2]: 1.33 ± 0.21
FACS-Seq fitted mean (log10) [3]: -0.19 ± 0.061
normalized RNA/DNA level with ligand (log10) [4]: 1.54 ± 0.1

GCUGUCACCGAGAAACUGUGAAGUAUAUCUUAAACCUGGGCACUUAAAAGAUAUAUGGAGUUAGUAGUGCAACCUGCUCGGUCUGAUGAGUCCACAAAAGGACGAAACAGC
FACS-Seq fitted mean (log10) [1]: -0.498 ± 0.059
normalized RNA/DNA level without ligand (log10) [2]: 1.31 ± 0.11
FACS-Seq fitted mean (log10) [3]: -0.271 ± 0.018
normalized RNA/DNA level with ligand (log10) [4]: 1.52 ± 0.069

GCUGUCACCGAGAAACUGUGAAGUAUAUCUUAAACCUGGGCACUUAAAAGAUAUAUGGAGUUAGUAGUGCAACCUGCUCGGUCUGAUGAGUCCUAGUGAGGACGAAACAGC
FACS-Seq fitted mean (log10) [1]: -0.51 ± 0.069
normalized RNA/DNA level without ligand (log10) [2]: 1.626 ± 0.0075
FACS-Seq fitted mean (log10) [3]: -0.218 ± 0.016
normalized RNA/DNA level with ligand (log10) [4]: 1.77 ± 0.15

GCUGUCACCGAGAAACUGUGAAGUAUAUCUUAAACCUGGGCACUUAAAAGAUAUAUGGAGUUAGUAGUGCAACCUGCUCGGUCUGAUGAGUCCGCGAUAGGACGAAACAGC
FACS-Seq fitted mean (log10) [1]: -0.474 ± 0.0058
normalized RNA/DNA level without ligand (log10) [2]: 1.44 ± 0.11
FACS-Seq fitted mean (log10) [3]: -0.154 ± 0.057
normalized RNA/DNA level with ligand (log10) [4]: 1.61 ± 0.12

GCUGUCACCGAGAAACUGUGAAGUAUAUCUUAAACCUGGGCACUUAAAAGAUAUAUGGAGUUAGUAGUGCAACCUGCUCGGUCUGAUGAGUCCUACUUUGGACGAAACAGC
FACS-Seq fitted mean (log10) [1]: -0.1 ± 0.037
normalized RNA/DNA level without ligand (log10) [2]: 1.68 ± 0.019
FACS-Seq fitted mean (log10) [3]: 0.192 ± 0.048
normalized RNA/DNA level with ligand (log10) [4]: 1.84 ± 0.13
